# Measurements reported in publication PMC8523169, “Competitive binding of MatP and topoisomerase IV to the MukB hinge domain” (eLife, 2021).
# Positions count from the first letter of the chain named. Numbers in names are those of the source. Where two headings read alike, the source gives them in different places.
# T1: MukB long hinge (LH; amino acid residues 568–863) (E. coli, UniProt P22523 568-863)
# T1 construct: MukB, E. coli, residues 568-863: dimeric globular hinge domain and 20% of the coiled-coil region; also called LH (MBP cleaved); LH2; source: NEBExpress cells (pMAL-c5X), purified (amylose, Factor Xa cleavage, HiTrap Q XL, SEC); not shown: MBP, N-terminal, cleaved
# T1 sequence (looked up): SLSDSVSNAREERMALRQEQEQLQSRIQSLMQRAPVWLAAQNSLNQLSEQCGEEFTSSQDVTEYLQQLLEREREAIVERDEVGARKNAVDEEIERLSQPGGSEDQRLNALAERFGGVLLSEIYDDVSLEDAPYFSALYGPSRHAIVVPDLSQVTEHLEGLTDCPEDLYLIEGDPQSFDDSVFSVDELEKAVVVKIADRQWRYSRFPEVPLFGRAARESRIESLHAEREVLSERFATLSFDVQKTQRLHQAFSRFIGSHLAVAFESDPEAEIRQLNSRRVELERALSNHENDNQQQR
# T2: full-length MukB (wild type) (E. coli, UniProt P22523 1-1486)
# T2 construct: MukB, E. coli, full length; also called WT MukB; unlabeled MukB; source: purified as described (Zawadzka et al., 2018)
# T2 sequence (looked up): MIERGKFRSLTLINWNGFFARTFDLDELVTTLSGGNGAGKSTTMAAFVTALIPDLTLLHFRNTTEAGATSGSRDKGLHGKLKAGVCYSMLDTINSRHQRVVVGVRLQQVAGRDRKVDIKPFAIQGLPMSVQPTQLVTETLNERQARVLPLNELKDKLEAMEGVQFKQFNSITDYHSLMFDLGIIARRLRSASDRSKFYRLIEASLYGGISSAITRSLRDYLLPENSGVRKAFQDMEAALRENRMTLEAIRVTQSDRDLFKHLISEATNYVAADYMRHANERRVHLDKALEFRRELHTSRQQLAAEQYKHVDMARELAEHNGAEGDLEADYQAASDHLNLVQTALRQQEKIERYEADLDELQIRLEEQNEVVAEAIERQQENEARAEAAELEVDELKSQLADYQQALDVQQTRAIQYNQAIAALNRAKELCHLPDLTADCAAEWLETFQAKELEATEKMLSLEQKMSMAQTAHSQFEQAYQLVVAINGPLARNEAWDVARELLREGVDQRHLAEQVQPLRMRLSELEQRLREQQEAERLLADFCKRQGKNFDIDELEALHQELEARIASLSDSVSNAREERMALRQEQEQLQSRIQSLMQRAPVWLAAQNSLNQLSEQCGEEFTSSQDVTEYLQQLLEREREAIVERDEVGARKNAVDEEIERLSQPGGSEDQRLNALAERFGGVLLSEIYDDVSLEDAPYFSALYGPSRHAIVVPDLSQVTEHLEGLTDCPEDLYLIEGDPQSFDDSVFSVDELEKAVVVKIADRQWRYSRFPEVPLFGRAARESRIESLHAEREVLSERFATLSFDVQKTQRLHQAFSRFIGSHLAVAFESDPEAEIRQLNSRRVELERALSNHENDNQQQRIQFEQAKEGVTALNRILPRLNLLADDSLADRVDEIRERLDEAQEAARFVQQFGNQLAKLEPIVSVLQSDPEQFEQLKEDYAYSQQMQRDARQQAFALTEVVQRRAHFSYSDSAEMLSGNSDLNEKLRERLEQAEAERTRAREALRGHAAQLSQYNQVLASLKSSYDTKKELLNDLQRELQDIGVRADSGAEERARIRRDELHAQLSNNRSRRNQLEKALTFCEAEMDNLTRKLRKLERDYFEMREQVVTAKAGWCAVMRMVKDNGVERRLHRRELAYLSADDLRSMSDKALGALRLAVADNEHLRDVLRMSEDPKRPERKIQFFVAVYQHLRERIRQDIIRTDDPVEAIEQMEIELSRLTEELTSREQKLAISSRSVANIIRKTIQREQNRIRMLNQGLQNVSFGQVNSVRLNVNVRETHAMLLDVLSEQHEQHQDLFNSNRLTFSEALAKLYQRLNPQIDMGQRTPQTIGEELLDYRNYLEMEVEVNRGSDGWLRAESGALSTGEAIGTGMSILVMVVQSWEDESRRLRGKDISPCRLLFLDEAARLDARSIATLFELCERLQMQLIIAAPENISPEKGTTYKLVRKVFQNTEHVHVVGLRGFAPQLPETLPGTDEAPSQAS
# T3: full-length MukB^KKK (D697K D745K E753K) (E. coli, UniProt P22523 1-1486, D697K | D745K | E753K)
# T3 construct: MukB, E. coli, full length, with three hinge substitutions
# T3 sequence (looked up): T2 sequence (looked up) with D697K, D745K, E753K
# B1: MatPΔ18C (1–132), C-terminal 6xHis-tag (domain or fragment, E. coli, UniProt P0A8N0 1-132, looked up)
# chain: MKYQQLENLESGWKWKYLVKKHREGELITRYIEASAAQEAVDVLLSLENEPVLVNGWIDKHMNPELVNRMKQTIRARRKRHFNAEHQHTRKKSIDLEFIVWQRLAGLAQRRGKTLSETIVQLIEDAENKEKY
# notes: MatP, E. coli, residues 1-132 (deletion of the 18 C-terminal residues); also called MatPΔ18C-His; MatP2; source: overexpressed, purified as previously published (Nolivos et al., 2016) with an added SEC step; not shown: His6, C-terminal, kept
# B2: MatP^4A (K71A, Q72A, R75A, and R77A) (domain or fragment, E. coli, UniProt P0A8N0 1-132, looked up)
# chain: B1 chain with K71A, Q72A, R75A, R77A
# notes: MatP, E. coli, residues 1-132 (MatPΔ18C) with four substitutions; source: site-directed mutagenesis, purified using the same protocol as MatP
# B3: full-length ParC, N-terminal 6xHis-tag (enzyme, E. coli, UniProt P0AFI2 1-752, looked up)
# chain: MSDMAERLALHEFTENAYLNYSMYVIMDRALPFIGDGLKPVQRRIVYAMSELGLNASAKFKKSARTVGDVLGKYHPHGDSACYEAMVLMAQPFSYRYPLVDGQGNWGAPDDPKSFAAMRYTESRLSKYSELLLSELGQGTADWVPNFDGTLQEPKMLPARLPNILLNGTTGIAVGMATDIPPHNLREVAQAAIALIDQPKTTLDQLLDIVQGPDYPTEAEIITSRAEIRKIYENGRGSVRMRAVWKKEDGAVVISALPHQVSGARVLEQIAAQMRNKKLPMVDDLRDESDHENPTRLVIVPRSNRVDMDQVMNHLFATTDLEKSYRINLNMIGLDGRPAVKNLLEILSEWLVFRRDTVRRRLNYRLEKVLKRLHILEGLLVAFLNIDEVIEIIRNEDEPKPALMSRFGLTETQAEAILELKLRHLAKLEEMKIRGEQSELEKERDQLQGILASERKMNNLLKKELQADAQAYGDDRRSPLQEREEAKAMSEHDMLPSEPVTIVLSQMGWVRSAKGHDIDAPGLNYKAGDSFKAAVKGKSNQPVVFVDSTGRSYAIDPITLPSARGQGEPLTGKLTLPPGATVDHMLMESDDQKLLMASDAGYGFVCTFNDLVARNRAGKALITLPENAHVMPPVVIEDASDMLLAITQAGRMLMFPVSDLPQLSKGKGNKIINIPSAEAARGEDGLAQLYVLPPQSTLTIHVGKRKIKLRPEELQKVTGERGRRGTLMRGLQRIDRVEIDSPRRASSGDSEE
# notes: ParC subunit of topoisomerase IV, E. coli, full length; also called His-ParC; ParC2; source: overexpressed, purified as previously published (Nolivos et al., 2016) with an added SEC step; not shown: His6, N-terminal, kept
# B4: Cy3B-labeled MatP-Cys-His (domain or fragment, E. coli)
# chain: MKYQQLENLESGWKWKYLVKKHREGELITRYIEASAAQEAVDVLLSLENEPVLVNGWIDKHMNPELVNRMKQTIRARRKRHFNAEHQHTRKKSIDLEFIVWQRLAGLAQRRGKTLSETIVQLIEDAENKEKYSDPNSSSVDKLCAAALE
# modifications: Cy3B maleimide on the single cysteine engineered into the C-terminal linker
# notes: MatP, E. coli, residues 1-132 (MatPΔ18C); C-terminal linker between MatP and its 6xHis-tag with the engineered cysteine; Labeling efficiency 89%; also called MatP-Cy3B; Cy3B-MatP; source: purified as MatP, labeled with Cy3B maleimide, excess dye removed by SEC
# What was measured:
# [1] = target: T1, MukB long hinge (LH; amino acid …); assay: native MS; proteins buffer exchanged into 200 mM ammonium acetate pH 8.0, alone or mixed in different ratios (two or three components, with or without 50 bp DNA), 10 min on ice; details: both partners purified
# [2] = target: the molecule itself; assay: as above
# [3] = target: T1, MukB long hinge (LH; amino acid …); assay: ITC; 100 µM MatP titrated into 10 µM LH at 25 °C; one-site model; three repeats; details: both partners purified
# [4] = target: the molecule itself; assay: native MS; proteins buffer exchanged into 200 mM ammonium acetate pH 8.0, alone or mixed in different ratios (two or three components, with or without 50 bp DNA), 10 min on ice; remark: listed apart in the source
# [5] = target: T1, MukB long hinge (LH; amino acid …); assay: native gel or EMSA; native PAGE; MatP or variants (7 µM) mixed with LH and/or 50 bp DNA at 1:1(:1), 30 min on ice; Coomassie and ethidium bromide staining; details: both partners purified
# [6] = target: T2, full-length MukB (wild type); assay: fluorescence correlation spectroscopy (FCS); competition: MatP-Cy3B fixed at 1 nM, MukB at 400 nM; ParC variants at 10-fold, unlabeled MatP at 50-fold, DNA at 2.5-fold molar excess; details: both partners purified
# [7] = target: T3, full-length MukB^KKK (D697K D745K E753K); assay: fluorescence correlation spectroscopy (FCS); titration at constant 1 nM MatP-Cy3B; 20 mM Tris-HCl pH 7.5, 50 mM NaCl, 0.3 mg/mL BSA, 2 mM DTT, 0.05% Tween-20; 22 °C; fitted to the Hill equation; details: both partners purified
# [8] = target: T2, full-length MukB (wild type); assay: as above; details: both partners purified
binder,measurement,setting,value
B1,stoichiometry N,[1],1 MatP dimer per LH dimer
same,stoichiometry N,[2],2
same,Kd,[3],590 nM
same,dH,[3],-16.8 kcal/mol
same,stoichiometry N,[3],0.96
B2,stoichiometry N,[4],2
same,binding result,[5],binds
B3,fold decrease in MatP-Cy3B binding to MukB at 10-fold excess of competitor,[6],3 fold
same,stoichiometry N,[2],2
B4,Kd,[7],~1600 nM
same,Kd,[8],~250 nM
